Measurements taken from US20260286002 (published 2026).
Like-named read-outs stand apart in the source and are kept apart here.

How the values were obtained:
[1] = target: T1, human CD39-His (human, UniProt P49961); test: BLI
T1 chain: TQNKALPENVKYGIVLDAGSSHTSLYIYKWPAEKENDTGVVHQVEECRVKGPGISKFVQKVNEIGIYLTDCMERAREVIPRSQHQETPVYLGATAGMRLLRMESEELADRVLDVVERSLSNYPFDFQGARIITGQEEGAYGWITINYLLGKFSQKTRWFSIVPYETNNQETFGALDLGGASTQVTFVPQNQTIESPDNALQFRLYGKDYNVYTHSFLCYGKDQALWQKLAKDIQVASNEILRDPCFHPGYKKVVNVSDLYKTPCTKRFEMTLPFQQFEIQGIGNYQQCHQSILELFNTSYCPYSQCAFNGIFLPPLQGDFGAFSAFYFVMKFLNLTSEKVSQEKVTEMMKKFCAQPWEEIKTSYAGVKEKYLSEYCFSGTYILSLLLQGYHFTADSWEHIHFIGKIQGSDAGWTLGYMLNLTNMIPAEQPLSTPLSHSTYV

[2] = target: T1, human CD39-His; test: BLI

Kd [1]: 0.255 nM
Kd [2]: 0.398 nM
B1: B391-F04 (designed binder)
chain: QLQLVESGGGLVQPGGSLRLSCAASGFTFSNLGMSWYRQAPGKAREWVGSISASGDYTTYQNSVKGRFTISRDNAKNTLYLQMNNLKPEDTGVYYCTRRVDSYPRGQGTQVTVSS
